Where “and” joins values, the source holds several entries; their conditions need not be identical. Equal entries are not always repeated. Each block holds one binder with its values, some of them ahead of it.
Experiments:
Experiment in all cases: cell-based or functional assay
[1] = molecular target: T1, human NPRA (human, UniProt P16066 33-1061)
T1 sequence (looked up): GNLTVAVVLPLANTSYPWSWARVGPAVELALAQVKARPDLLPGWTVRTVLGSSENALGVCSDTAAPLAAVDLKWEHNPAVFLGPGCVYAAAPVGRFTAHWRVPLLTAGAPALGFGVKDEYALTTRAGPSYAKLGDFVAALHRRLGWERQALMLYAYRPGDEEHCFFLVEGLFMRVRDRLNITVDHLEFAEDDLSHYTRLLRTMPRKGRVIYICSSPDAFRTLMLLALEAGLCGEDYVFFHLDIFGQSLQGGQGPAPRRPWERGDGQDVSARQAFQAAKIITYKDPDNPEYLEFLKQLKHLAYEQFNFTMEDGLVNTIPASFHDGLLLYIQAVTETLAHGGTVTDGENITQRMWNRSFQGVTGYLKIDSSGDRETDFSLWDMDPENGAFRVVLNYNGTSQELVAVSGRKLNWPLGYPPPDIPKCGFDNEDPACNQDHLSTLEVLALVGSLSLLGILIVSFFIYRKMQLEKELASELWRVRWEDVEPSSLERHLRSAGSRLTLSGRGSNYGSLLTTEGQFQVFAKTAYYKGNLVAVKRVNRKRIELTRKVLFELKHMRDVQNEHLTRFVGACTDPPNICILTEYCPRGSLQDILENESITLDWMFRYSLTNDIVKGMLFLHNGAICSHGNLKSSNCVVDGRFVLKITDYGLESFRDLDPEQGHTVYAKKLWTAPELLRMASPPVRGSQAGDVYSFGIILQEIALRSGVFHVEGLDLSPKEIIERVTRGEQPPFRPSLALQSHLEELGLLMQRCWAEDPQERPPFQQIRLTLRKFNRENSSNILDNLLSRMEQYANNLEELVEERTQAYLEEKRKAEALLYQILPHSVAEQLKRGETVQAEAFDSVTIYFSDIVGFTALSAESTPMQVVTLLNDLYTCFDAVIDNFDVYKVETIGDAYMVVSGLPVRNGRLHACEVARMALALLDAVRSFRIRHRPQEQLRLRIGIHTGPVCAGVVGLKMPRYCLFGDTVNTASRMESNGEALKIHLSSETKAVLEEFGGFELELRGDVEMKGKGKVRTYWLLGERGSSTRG

[2] = molecular target: T2, rat NPR-A (rat, UniProt P18910 29-1057)
T2 sequence (looked up): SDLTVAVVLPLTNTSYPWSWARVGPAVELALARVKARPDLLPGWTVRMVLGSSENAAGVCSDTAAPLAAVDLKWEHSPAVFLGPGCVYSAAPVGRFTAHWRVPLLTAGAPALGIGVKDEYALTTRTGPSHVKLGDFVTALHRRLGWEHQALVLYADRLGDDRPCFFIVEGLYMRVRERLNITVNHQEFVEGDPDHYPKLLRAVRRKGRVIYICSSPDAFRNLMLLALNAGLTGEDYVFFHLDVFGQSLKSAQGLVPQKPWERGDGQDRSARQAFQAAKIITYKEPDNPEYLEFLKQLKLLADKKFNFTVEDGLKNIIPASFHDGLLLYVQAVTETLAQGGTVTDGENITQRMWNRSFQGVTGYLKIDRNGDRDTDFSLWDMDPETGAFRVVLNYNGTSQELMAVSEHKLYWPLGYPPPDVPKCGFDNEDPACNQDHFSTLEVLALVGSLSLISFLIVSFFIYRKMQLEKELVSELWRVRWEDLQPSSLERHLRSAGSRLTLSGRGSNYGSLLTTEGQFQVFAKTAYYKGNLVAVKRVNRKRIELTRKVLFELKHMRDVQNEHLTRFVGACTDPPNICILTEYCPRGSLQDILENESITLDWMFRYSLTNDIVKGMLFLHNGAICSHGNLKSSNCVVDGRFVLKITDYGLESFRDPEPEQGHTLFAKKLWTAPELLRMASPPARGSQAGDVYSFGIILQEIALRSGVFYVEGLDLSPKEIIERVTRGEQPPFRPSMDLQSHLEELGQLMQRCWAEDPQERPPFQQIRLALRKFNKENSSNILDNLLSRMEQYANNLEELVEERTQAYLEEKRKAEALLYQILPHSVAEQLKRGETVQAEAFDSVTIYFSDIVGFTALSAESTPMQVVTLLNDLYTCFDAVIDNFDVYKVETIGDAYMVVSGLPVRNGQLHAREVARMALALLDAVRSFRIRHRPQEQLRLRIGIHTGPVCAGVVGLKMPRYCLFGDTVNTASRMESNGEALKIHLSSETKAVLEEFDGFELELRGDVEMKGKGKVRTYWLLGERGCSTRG

[3] = molecular target: T3, human NPRA (human, UniProt P16066 33-1061); remark: listed apart in the source
T3 sequence (looked up): T1 sequence (looked up)

activity rcs [1]: 20%
average rel logEC50 [1]: -0.1 delta logEC50 vs TPP-5661
rel. activity rcs [1]: -0.1 delta logEC50 vs TPP-5661
rel. logEC50 pcs 5 [1]: -0.1 delta logEC50 vs TPP-5661
B1: TPP-10361 (antibody, human IgG1, lambda)
heavy: not shown
light: QSVLTQPPSVSGAPGQRVTISCTGSSSNIGAGYDVHWYQQLPGTAPKLLIYGSGSGSGSGSGSPDGGSGGSLRRSSCFGGRMDRIGAQSGLGCNSFRYGSYGSGGSGSGSGNRPSGVPDRFSGSKSGTSASLAITGLQAEDEADYYCQSYDSSLSGVVFGGGTKLTVLGQPKAAPSVTLFPPSSEELQANKATLVCLISDFYPGAVTVAWKADSSPVKAGVETTTPSKQSNNKYAASSYLSLTPEQWKSHRSYSCQVTHEGSTVEKTVAPTECS

EC50, fluorescence signal of rat NPR-A / CNGA2 (cGMP biosensor) / GCaMP6 CHO reporter cells [2]: 1200 nM
EC50 on rNPRA reporter cells [2]: > 1000 nM
B2: TPP-11156 (antibody, human IgG1, lambda)
heavy: not shown
light: QSVLTQPPSVSGAPGQRVTISCTGSSSNIGAGYDVHWYQQLPGTAPKLLIYGNSNRPSGVPDRFSGSKSGTSASLAITGLQAEDEADYYCQSYDSSLSGVVFGGGTKLTVLGQPKAAPSVTLFPPSSEELQANKATLVCLISDFYPGAVTVAWKADSSPVKAGVETTTPSKQSNNKYAASSYLSLTPEQWKSHRSYSCQVTHEGSTVEKTVAPTECS

average rel logEC50 (vs TPP-5661) [3]: -0.5
rel. logEC50 pcs 5 (vs TPP-5661, hNPRA-CHO k1) [3]: 0
rel. logEC50 pcs 6 (vs TPP-5661, hNPRA-CHO k1) [3]: -0.9
B3: TPP-10847 (antibody, human IgG1, lambda)
heavy: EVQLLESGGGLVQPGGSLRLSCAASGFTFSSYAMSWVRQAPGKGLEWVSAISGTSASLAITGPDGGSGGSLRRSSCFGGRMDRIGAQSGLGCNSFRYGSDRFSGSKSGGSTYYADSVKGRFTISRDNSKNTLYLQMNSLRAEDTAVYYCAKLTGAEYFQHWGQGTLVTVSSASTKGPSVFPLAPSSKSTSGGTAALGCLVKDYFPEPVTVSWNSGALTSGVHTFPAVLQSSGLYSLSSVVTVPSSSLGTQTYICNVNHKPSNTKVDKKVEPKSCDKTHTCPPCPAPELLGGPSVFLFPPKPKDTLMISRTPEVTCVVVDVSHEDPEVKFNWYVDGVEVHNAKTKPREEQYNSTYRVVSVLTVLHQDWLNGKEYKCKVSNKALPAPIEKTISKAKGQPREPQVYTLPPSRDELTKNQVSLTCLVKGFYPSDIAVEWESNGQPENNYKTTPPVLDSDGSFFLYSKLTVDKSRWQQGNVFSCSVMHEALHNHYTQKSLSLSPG
light: B2 light

activity rcs (cGMP, hNPRA-CHO k1) [3]: 71%
average rel logEC50 (vs TPP-5661) [3]: -0.1
rel. logEC50 pcs 2 (vs TPP-5661, hNPRA-CHO k1) [3]: -0.3
rel. logEC50 pcs 3 (vs TPP-5661, hNPRA-CHO k1) [3]: -0.2
rel. logEC50 pcs 7 (vs TPP-5661, hNPRA-CHO k1) [3]: 0
B4: TPP-10274 (antibody)
heavy: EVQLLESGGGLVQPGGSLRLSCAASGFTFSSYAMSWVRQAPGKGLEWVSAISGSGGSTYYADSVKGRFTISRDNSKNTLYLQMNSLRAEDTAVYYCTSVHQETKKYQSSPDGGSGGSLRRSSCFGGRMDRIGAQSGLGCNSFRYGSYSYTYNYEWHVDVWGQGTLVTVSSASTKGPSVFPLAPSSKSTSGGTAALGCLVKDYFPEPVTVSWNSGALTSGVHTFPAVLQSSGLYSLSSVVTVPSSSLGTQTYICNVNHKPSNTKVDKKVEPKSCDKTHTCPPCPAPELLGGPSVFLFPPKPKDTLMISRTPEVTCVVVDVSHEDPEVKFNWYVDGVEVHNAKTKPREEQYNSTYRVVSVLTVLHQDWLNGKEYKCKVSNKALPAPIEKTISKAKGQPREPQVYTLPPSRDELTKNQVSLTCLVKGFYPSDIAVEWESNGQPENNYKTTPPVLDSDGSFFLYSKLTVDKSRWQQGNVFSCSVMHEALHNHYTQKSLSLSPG
light: B2 light

activity rcs [1]: 84%
average rel logEC50 [1]: -0.5 delta logEC50 vs TPP-5661
rel. logEC50 pcs 2 [1]: -0.8 delta logEC50 vs TPP-5661
rel. logEC50 pcs 3 [1]: -0.1 delta logEC50 vs TPP-5661
B5: TPP-10290 (antibody)
heavy: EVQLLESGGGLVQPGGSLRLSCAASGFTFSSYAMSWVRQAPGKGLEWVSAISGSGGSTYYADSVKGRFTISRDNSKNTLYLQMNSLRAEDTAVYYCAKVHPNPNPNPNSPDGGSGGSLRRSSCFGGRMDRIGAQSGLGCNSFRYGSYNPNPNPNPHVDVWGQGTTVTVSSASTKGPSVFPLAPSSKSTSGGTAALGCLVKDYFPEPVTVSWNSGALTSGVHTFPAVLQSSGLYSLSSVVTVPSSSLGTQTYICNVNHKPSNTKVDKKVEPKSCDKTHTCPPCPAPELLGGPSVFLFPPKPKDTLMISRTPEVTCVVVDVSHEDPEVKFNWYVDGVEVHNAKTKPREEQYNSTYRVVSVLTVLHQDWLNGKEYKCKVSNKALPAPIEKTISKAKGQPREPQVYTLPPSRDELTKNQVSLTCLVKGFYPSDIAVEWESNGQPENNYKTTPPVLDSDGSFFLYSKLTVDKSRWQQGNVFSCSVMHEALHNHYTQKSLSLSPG
light: B2 light

average rel logEC50 (vs TPP-5661) [3]: -0.7
rel. logEC50* pcs (vs TPP-5661, hNPRA-HEK293) [3]: -0.6 and -0.8
B6: TPP-13061 (antibody, human IgG1, lambda)
heavy: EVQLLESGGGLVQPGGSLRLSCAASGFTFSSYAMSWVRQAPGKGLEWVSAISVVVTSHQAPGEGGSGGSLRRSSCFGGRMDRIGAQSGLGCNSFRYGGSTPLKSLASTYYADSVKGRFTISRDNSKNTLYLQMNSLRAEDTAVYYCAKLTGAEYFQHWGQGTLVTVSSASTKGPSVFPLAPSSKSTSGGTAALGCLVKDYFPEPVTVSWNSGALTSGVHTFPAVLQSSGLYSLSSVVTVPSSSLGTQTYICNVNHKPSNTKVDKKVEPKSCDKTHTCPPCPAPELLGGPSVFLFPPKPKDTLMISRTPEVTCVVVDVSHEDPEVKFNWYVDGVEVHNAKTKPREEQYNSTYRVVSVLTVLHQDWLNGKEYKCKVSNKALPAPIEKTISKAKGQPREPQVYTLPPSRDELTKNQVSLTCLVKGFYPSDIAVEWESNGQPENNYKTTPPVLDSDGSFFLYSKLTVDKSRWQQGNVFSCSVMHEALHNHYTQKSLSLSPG
light: B2 light

average rel logEC50 (vs TPP-5661) [3]: -0.8
rel. logEC50* pcs (vs TPP-5661, hNPRA-HEK293) [3]: -0.7 and -0.8
B7: TPP-13054 (antibody, human IgG1, lambda)
heavy: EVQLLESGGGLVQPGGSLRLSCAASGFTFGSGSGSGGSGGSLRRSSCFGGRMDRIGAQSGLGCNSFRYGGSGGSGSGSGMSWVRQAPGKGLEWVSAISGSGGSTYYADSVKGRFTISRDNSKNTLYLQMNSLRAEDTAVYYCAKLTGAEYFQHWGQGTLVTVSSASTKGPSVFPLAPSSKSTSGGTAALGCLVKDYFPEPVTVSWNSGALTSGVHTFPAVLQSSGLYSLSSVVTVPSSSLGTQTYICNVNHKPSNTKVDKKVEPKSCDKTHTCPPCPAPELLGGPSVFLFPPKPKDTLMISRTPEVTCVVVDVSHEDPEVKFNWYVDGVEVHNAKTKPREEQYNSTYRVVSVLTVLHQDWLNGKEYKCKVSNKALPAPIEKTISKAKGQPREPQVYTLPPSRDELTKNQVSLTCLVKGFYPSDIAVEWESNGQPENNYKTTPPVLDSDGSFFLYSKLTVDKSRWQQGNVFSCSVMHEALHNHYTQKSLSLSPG
light: B2 light

activity rcs (cGMP, hNPRA-CHO k1) [3]: 83%
average rel logEC50 (vs TPP-5661) [3]: -0.8
rel. activity rcs (delta logEC50 vs TPP-5661, hNPRA-CHO k1) [3]: -0.8
rel. logEC50 pcs 5 (vs TPP-5661, hNPRA-CHO k1) [3]: -0.8
B8: TPP-10283 (antibody, human IgG1, lambda)
heavy: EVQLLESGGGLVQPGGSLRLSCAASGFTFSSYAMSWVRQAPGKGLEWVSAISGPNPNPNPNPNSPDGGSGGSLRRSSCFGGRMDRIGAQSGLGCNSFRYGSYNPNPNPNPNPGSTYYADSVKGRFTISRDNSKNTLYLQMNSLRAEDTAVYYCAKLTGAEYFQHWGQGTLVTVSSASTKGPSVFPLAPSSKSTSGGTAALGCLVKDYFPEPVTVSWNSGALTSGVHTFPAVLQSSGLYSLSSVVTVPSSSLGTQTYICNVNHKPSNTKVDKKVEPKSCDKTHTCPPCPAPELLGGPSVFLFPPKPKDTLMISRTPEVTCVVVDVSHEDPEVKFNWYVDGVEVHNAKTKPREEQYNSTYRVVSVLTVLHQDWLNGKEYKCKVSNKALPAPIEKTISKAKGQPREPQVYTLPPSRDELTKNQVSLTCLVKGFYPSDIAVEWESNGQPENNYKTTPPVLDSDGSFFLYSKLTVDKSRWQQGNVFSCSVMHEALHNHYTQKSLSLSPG
light: B2 light

average rel logEC50 [1]: -0.3 delta logEC50 vs TPP-5661
rel. logEC50 pcs 9 [1]: -0.3 delta logEC50 vs TPP-5661
B9: TPP-13230 (antibody)
heavy: not shown
light: B2 light

activity rcs [1]: 36%
average rel logEC50 [1]: 0 delta logEC50 vs TPP-5661
rel. activity rcs [1]: 0 delta logEC50 vs TPP-5661
rel. logEC50* pcs [1]: 0 delta logEC50 vs TPP-5661
rel. logEC50 ics [1]: 0 delta logEC50 vs TPP-5661
rel. logEC50 pcs 1 [1]: 0 delta logEC50 vs TPP-5661
rel. logEC50 pcs 2 [1]: 0 delta logEC50 vs TPP-5661
rel. logEC50 pcs 3 [1]: 0 delta logEC50 vs TPP-5661
rel. logEC50 pcs 4 [1]: 0 delta logEC50 vs TPP-5661
rel. logEC50 pcs 5 [1]: 0 delta logEC50 vs TPP-5661
rel. logEC50 pcs 6 [1]: 0 delta logEC50 vs TPP-5661
rel. logEC50 pcs 7 [1]: 0 delta logEC50 vs TPP-5661
rel. logEC50 pcs 8 [1]: 0 delta logEC50 vs TPP-5661
rel. logEC50 pcs 9 [1]: 0 delta logEC50 vs TPP-5661
B10: TPP-5661 (antibody)
heavy: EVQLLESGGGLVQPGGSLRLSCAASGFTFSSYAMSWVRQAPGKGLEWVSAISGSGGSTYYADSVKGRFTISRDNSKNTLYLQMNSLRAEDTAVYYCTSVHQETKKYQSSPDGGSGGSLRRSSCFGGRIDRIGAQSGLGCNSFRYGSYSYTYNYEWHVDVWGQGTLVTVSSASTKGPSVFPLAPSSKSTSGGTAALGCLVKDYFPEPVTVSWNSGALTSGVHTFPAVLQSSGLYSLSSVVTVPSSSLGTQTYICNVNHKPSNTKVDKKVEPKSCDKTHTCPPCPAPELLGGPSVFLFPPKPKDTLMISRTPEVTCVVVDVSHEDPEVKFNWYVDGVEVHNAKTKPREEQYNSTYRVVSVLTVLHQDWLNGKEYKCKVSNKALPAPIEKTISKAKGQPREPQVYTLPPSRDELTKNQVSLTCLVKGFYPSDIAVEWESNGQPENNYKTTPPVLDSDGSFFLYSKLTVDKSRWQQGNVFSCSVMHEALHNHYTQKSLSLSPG
light: B2 light

EC50, fluorescence signal of rat NPR-A / CNGA2 (cGMP biosensor) / GCaMP6 CHO reporter cells [2]: 180 nM
B11: TPP-10992 (antibody, human IgG4 S228P, lambda)
heavy: not shown
light: B2 light

activity rcs (cGMP, hNPRA-CHO k1) [3]: 41%
average rel logEC50 (vs TPP-5661) [3]: -0.3
rel. logEC50* pcs (vs TPP-5661, hNPRA-HEK293) [3]: -0.5 and -0.6 and -0.4
rel. logEC50 pcs 4 (vs TPP-5661, hNPRA-CHO k1) [3]: -0.2
rel. logEC50 pcs 7 (vs TPP-5661, hNPRA-CHO k1) [3]: 0
B12: TPP-10294 (antibody, human IgG1, lambda)
heavy: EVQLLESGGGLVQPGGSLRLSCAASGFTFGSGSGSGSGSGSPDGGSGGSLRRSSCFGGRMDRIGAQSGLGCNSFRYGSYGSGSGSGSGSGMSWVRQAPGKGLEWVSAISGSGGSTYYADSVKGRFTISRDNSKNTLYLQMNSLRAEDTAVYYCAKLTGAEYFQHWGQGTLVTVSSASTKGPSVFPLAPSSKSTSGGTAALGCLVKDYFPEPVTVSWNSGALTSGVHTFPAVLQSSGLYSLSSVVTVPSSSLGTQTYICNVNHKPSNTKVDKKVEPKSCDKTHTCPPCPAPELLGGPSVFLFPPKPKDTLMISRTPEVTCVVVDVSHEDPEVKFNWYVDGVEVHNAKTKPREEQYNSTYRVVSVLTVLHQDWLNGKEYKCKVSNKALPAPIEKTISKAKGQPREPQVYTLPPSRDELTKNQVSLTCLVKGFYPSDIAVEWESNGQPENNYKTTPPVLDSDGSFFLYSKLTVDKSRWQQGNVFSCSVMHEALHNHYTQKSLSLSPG
light: B2 light

activity rcs (cGMP, hNPRA-CHO k1) [3]: 67%
average rel logEC50 (vs TPP-5661) [3]: -0.6
rel. logEC50 pcs 5 (vs TPP-5661, hNPRA-CHO k1) [3]: -0.4
rel. logEC50 pcs 6 (vs TPP-5661, hNPRA-CHO k1) [3]: -0.8
B13: TPP-10845 (antibody, human IgG1, lambda)
heavy: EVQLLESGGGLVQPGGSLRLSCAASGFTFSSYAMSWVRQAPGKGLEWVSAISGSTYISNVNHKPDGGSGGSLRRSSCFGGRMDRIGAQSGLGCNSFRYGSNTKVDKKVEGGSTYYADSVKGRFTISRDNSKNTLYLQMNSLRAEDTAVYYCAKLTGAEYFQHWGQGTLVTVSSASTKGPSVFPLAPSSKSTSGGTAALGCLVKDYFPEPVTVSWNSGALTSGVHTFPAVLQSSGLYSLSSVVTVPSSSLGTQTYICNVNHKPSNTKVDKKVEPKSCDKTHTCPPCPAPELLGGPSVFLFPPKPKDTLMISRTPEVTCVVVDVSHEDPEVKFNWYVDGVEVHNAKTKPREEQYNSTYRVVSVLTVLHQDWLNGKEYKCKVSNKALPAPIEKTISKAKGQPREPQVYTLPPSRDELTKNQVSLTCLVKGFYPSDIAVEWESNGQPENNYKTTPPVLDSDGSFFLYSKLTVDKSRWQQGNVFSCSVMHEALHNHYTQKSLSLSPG
light: B2 light

activity rcs (cGMP, hNPRA-CHO k1) [3]: 30%
average rel logEC50 (vs TPP-5661) [3]: 0.1
rel. activity rcs (delta logEC50 vs TPP-5661, hNPRA-CHO k1) [3]: 0.3
rel. logEC50 pcs 1 (vs TPP-5661, hNPRA-CHO k1) [3]: 0.3
rel. logEC50 pcs 2 (vs TPP-5661, hNPRA-CHO k1) [3]: -0.2
rel. logEC50 pcs 4 (vs TPP-5661, hNPRA-CHO k1) [3]: 0.1
rel. logEC50 pcs 5 (vs TPP-5661, hNPRA-CHO k1) [3]: 0.2
B14: TPP-10282 (antibody, human IgG1, lambda)
heavy: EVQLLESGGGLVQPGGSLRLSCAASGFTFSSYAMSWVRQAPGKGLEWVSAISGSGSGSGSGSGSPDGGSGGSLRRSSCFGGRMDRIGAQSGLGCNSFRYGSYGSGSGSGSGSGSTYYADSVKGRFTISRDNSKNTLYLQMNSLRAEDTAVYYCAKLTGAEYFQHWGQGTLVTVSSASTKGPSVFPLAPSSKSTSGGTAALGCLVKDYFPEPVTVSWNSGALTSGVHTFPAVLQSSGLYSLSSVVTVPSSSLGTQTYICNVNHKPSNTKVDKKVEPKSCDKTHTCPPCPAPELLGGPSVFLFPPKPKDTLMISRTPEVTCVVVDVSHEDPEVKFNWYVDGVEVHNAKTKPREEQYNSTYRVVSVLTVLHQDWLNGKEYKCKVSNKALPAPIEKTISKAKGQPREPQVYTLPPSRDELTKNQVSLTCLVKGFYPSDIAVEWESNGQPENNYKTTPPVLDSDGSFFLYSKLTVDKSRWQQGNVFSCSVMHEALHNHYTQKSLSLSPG
light: B2 light

activity rcs (cGMP, hNPRA-CHO k1) [3]: 72%
average rel logEC50 (vs TPP-5661) [3]: -0.4
rel. activity rcs (delta logEC50 vs TPP-5661, hNPRA-CHO k1) [3]: -0.9
rel. logEC50 pcs 5 (vs TPP-5661, hNPRA-CHO k1) [3]: -0.9
rel. logEC50 pcs 6 (vs TPP-5661, hNPRA-CHO k1) [3]: -0.4
rel. logEC50 pcs 7 (vs TPP-5661, hNPRA-CHO k1) [3]: 0.2
B15: TPP-10765 (antibody, human IgG1, lambda)
heavy: not shown
light: B2 light

EC50, fluorescence signal of rat NPR-A / CNGA2 (cGMP biosensor) / GCaMP6 CHO reporter cells [2]: 11 nM
EC50 on rNPRA reporter cells [2]: < 20 nM
B16: TPP-11157 (antibody, V domains shown)
VH: GFTFSSYAMSWVRQAPGKGLEWVSAISGSVVVTSHQAPGGGSGGGEKKKLKSLAYGSTYYADSVKGRFTISRDNSKNTLYLQMNSLRAEDTAVYYCAKLTGAEYFQHWGQGTLVTVSS
VL: QSVLTQPPSVSGAPGQRVTISCTGSSSNIGAGYDVHWYQQLPGTAPKLLIYGNSNRPSGVPDRFSGSKSGTSASLAITGLQAEDEADYYCQSYDSSLSGVVFGGGTKLTVLG

activity rcs [1]: 94%
average rel logEC50 [1]: -0.2 delta logEC50 vs TPP-5661
rel. activity rcs [1]: 0.1 delta logEC50 vs TPP-5661
rel. logEC50 pcs 2 [1]: -0.6 delta logEC50 vs TPP-5661
rel. logEC50 pcs 3 [1]: 0.2 delta logEC50 vs TPP-5661
rel. logEC50 pcs 4 [1]: -0.3 delta logEC50 vs TPP-5661
B17: TPP-10355 (antibody, human IgG1, lambda)
heavy: not shown
light: QSVLTQPPSVSGAPGQRVTISCTGSSSNIGAGYDVHWYQQLPGTAPKLLIYGNSNRPSGVPDRFSGSKSGTSASLAITGLQAEDEADYYCAAWNPNPNPNPNPNGGSGGSLRRSSCFGGRMDRIGAQSGLGCNSFRYGSNPNPNPNPNPNVFGSGTKVTVLGQPKAAPSVTLFPPSSEELQANKATLVCLISDFYPGAVTVAWKADSSPVKAGVETTTPSKQSNNKYAASSYLSLTPEQWKSHRSYSCQVTHEGSTVEKTVAPTECS
